Source: article doi:10.1101/2020.11.04.367136 (bioRxiv, 2020)
Substitutions are numbered along the chain they refer to. Names and notes keep the numbering of the source.

T1: GFP–Rad55–Rad57 complex (His6–GFP–Rad55 and FLAG–Rad57) (S. cerevisiae, UniProt P38953 1-406; P25301 1-460)
T1 sequence (looked up) 1: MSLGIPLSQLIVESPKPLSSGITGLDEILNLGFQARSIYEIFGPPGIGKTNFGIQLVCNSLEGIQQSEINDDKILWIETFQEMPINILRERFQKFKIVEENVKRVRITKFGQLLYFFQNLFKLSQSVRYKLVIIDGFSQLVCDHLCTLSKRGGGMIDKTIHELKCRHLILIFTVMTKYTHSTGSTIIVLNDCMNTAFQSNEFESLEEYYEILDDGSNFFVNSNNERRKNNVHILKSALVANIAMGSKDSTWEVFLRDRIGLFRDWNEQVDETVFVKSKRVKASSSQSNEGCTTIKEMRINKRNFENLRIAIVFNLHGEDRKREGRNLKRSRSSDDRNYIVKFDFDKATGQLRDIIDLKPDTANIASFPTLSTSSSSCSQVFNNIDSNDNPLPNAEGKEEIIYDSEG
T1 sequence (looked up) 2: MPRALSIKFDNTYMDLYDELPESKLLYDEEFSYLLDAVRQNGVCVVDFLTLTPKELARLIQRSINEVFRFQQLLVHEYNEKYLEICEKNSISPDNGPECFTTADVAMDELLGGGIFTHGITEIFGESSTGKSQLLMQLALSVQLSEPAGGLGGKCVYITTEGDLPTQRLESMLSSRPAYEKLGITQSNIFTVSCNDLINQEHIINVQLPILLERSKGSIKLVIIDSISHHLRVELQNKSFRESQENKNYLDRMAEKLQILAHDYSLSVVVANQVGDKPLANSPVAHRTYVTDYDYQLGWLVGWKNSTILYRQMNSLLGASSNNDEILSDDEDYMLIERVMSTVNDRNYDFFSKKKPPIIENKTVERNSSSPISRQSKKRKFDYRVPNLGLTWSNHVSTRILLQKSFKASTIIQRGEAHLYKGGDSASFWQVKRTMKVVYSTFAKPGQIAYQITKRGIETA

B1: Rad51 (natural protein, S. cerevisiae, UniProt P25454 1-400, looked up)
chain: MSQVQEQHISESQLQYGNGSLMSTVPADLSQSVVDGNGNGSSEDIEATNGSGDGGGLQEQAEAQGEMEDEAYDEAALGSFVPIEKLQVNGITMADVKKLRESGLHTAEAVAYAPRKDLLEIKGISEAKADKLLNEAARLVPMGFVTAADFHMRRSELICLTTGSKNLDTLLGGGVETGSITELFGEFRTGKSQLCHTLAVTCQIPLDIGGGEGKCLYIDTEGTFRPVRLVSIAQRFGLDPDDALNNVAYARAYNADHQLRLLDAAAQMMSESRFSLIVVDSVMALYRTDFSGRGELSARQMHLAKFMRALQRLADQFGVAVVVTNQVVAQVDGGMAFNPDPKKPIGGNIMAHSSTTRLGFKKGKGCQRLCKVVDSPCLPEAECVFAIYEDGVGDPREEDE
B2: Rad51–K191R (natural protein, S. cerevisiae, UniProt P25454 1-400, looked up)
chain: B1 chain with K191R
B3: GST–Hed1–6xHis–GFP (natural protein, S. cerevisiae, UniProt Q03937 1-162, looked up)
chain: MQQRSNRRSCSYIPLGVHNNAEKSLCTEVAPARKNKRSITTSPIVNINVVERRLFNLELEKQQLRAKNLSENTGGGSPNGGAYLDAKKGVREQDQYQGGPSKELDRLQPPPSMKKSPPRKKKSLKDLIYETNKTFYQVDSNKVKYKVGLSKKQLLPSKTVDN

Columns and labels:
[1] = target: T1, GFP–Rad55–Rad57 complex (His6–GFP–Rad55 …); assay: single-molecule ssDNA curtain assay
Rad51 = target: B1; assay: single-molecule ssDNA curtain assay

| Binder | koff [1] | binding result (Rad51) |
| --- | --- | --- |
| B1 | 0.00758 s⁻¹ |  |
| B2 | 0.0058 s⁻¹ |  |
| B3 |  | binds |
